Measured values taken from patent publication US20150064217A1, “PLURIPOTENT GERM LAYER ORIGIN ANTIGEN PRESENTING CANCER VACCINE” (CALIFORNIA STEM CELL, INC., priority 2012, published 2015).

Experiments:
SK-5-Mel cells = assay: MHC class II (HLA-DR) expression by flow cytometry with autophagy inhibitor; type: cell-based; conditions: autophagy inhibitor together with interferon-gamma
Experimental: The cells were then harvested and assayed for apoptosis and MHC class II (HLA-DR) expression by flow cytometry.
(§1) The methodology of the study was as follows. Autologous and model melanoma tumor cell lines were incubated with 1000 IU/mL of IFN-gamma for 72 hours prior to assaying for autophagy, apoptosis and MHC class II expression. Autophagy was detected by immunobloting with antibodies against LC3 II and by flow cytometry with Enzo's CytoID® Autophagy Detection Kit. Apoptosis and MHC class II induction were assayed by flow cytometry using 7-AAD and annexin-V staining and antibodies against MHC class II, respectively. 7-AAD intercalates in dsDNA. 7-AAD is excluded by viable cells, and thus it can be used to detect dead cells.
Analysis of tumor cell death and changes in major histocompatibility class II expression in response to IFN-gamma were conducted by use of antibodies directed against MHC class II, annexin-V and 7-amino-actinomycin D (7-AAD) and acquired on a Beckton-Dickenson FACS Calibur® flow cytometer.
(§2) What was investigated was the induction of autophagy, apoptosis and MHC class II molecules after IFN-gamma treatment of melanoma tumor cells in vitro. […] Autophagy was detected by immunobloting with antibodies against LC3 II and by flow cytometry with Enzo's CytoID Autophagy Detection Kit. […]

melanoma cell lines [1] = assay: Apoptosis and autophagy induction in melanoma cell lines (7-AAD, annexin-V, LC3 II); type: cell-based
Experimental: as §1
Analysis of tumor cell death and changes in major histocompatibility class II expression in response to IFN-gamma were conducted by use of antibodies directed against MHC class II, annexin-V and 7-amino-actinomycin D (7-AAD) and acquired on a Beckton-Dickenson FACS Calibur® flow cytometer. […]
as §2

[2] = system: Glioblastoma tumor cell line; assay: Response to interferon-gamma by flow cytometry, glioblastoma cell line; type: cell-based; conditions: Sample C, interferon-gamma 72 hours
Description: (§3) Pure tumor cells were generated from colon, ovarian, glioblastoma, and renal cell carcinoma according to Dillman and Comforth, et al. (Cornforth, et al. (2011) Cancer Immunol. Immunother. 60:123-131; Dillman, et al. (1993) J. Immunother. Emphasis Tumor Immunol. 14:65-69; Dillman, et al. (2000) Cancer Biother. Radiopharm. 15:161-168; Dillman, et al. (1999) 14:443-449; Dillman et al. (2000) 15:161-168).
(§4) Briefly, tumor biopsies from surgical samples were enzymatically processed into single cell suspensions and purified cell lines generated by differential attachment and serum starvation. The cell lines generated were cryopreserved in liquid nitrogen, thawed and treated with or without interferon-gamma in 5% fetal bovine serum/RPMI media for 72 hours. After exposure to interferon-gamma, the non-adherent cells were analyzed separately from the adherent cells by flow-cytometry. The markers investigated were MHC class I, MHC class II, Annexin V (apoptosis), and 7-ADD (viability).

melanoma cell lines [3] = assay: Immunohistochemistry of tumor associated antigens in melanoma cell lines with or without IFN-gamma; type: cell-based, human; conditions: share of melanoma cell lines; 1000 IU/mL IFN-gamma, 72 hours; N = 27 samples
Experimental: Expression of a panel antigens by melanoma lines were determined using immunocytochemical procedure. Cells were cultured in 8-chamber culture slides (Thermo Fisher, Rochester, N.Y.) in the presence or absence of 1000 IU/mL IFN-gamma. After 72 hours, the cells were washed 3 times with 1× Phosphate Buffered Saline (PBS) and fixed in cold acetone. After blocking endogenous peroxidase, cells were incubated with appropriate primary antibodies against the antigens listed. Immunohistochemistry was performed using biotinylated anitmouse or rabbit immunoglobulins, Super Sensitive enzyme-conjugated streptavidin labeling and horse radish peroxidase chromogen, and substrate kits (Biogenex, San Ramon, Calif.). The reactivity of the following anti-human polyclonal or monoclonal antibodies was investigated with isotype matched control antibody: S-100 and HMB-45 (Biogenex, San Ramon, Calif.), Mel-2, Mel-5, Mart-1 (Signet, Dedham, Mass.), Tyrosinase and Mage-1 (Thermo Scientific, Fremont, Calif.), Melan-A, HLA-class I and HLA-class II (Dako, Denmark).

[4] = system: Renal Cell Carcinoma tumor cell line; assay: Response to interferon-gamma by flow cytometry, renal cell carcinoma cell line; type: cell-based; conditions: Sample D, interferon-gamma 72 hours
Description: as §3, §4

[5] = system: autologous melanoma tumor cells; assay: Immunoblotting of melanoma cell lysates; type: cell-based, human; conditions: cells incubated with IFN-gamma
Experimental: Cytoplasmic cell lysates were prepared with Mammalian Protein Extraction Reagent (Thermo Scientific, Rockford, Ill.) plus protease inhibitor cocktail (Roche, Indianapolis, Ind.) at 10,000 cells/uL on ice. Approximately 25 uLs/lane of cell lysates were separated on 12.5% tris-glycine gels, transferred to PVDF membrane and probed with antibodies against the following: calreticulin (MBL, Woburn, Mass.), Hsp-60, Hsp-70, Hsp-90 (R&D Systems, Minneapolis, Minn.), HMBG-1 (Cell Signaling, Danvers, Mass.), ICAM-1 (Santa Cruz Biotech, Santa Cruz, Calif.), Mel-4, Mart-1 (Signet, Emeryville, Calif.), tyrosinase (Upstate, Lake Placid, N.Y.) and GADPH (Calbiochem, Darmstadt, Germany).

[6] = system: autologous melanoma cells; assay: Flow cytometry for MHC class I and class II on autologous melanoma cells; type: cell-based, human; conditions: in response to IFN-gamma treatment
Experimental: FIGS. 2A-D show characterization of IFN-gamma treated autologous tumor cells used for loading dendritic cells. Autologous melanoma tumor cells were treated with or without 1000 IU/mL IFN-gamma for 72 hours in 15% FBS/ECS in RPMI, harvested and irradiated with 100 Gy and cryopreserved. Cells were then thawed in AIMV and a sample taken for flow cytometry and for preparation of cell lysates for immunoblotting prior to antigen loading of DCs. An example of four separate autologous melanoma cell lines is shown (FIG. 2A, FIG. 2B and FIG. 2C). Induction major histocompatibility complexes by IFN-gamma treatment of autologous tumor cells (FIG. 2D). Tumor cells were harvested after being treated with or without 1000 IU/mL IFN-gamma for 72 hours and then assayed for MHC class I and class II. Control isotype antibodies were used to identify positive populations. Dark data points indicate median mean fluorescent plus/minus 95% confidence interval. N=65. After irradiation, melanoma cells are checked by assays to ensure that there is not any mitosis. […]

Ovarian tumor cell line = assay: Response to interferon-gamma by flow cytometry, ovarian tumor cell line; type: cell-based; conditions: Sample B, interferon-gamma 72 hours
Description: as §3, §4

Colon tumor cell line = assay: Response to interferon-gamma by flow cytometry, colon tumor cell line; type: cell-based; conditions: Sample A, interferon-gamma 72 hours
Description: as §3, §4

## Cn1cnc(N)c2ncnc1-2 [3-MA, 3-methyladenine]
SK-5-Mel cells
  MHC class II expression despite treatment with interferon-gamma: loss of MHC class II expression

## carbobenzoxy-valyl-alanyl-aspartyl-[O-methyl]-fluoromethylketone [Z-VAD, reference compound]
Melanoma cell lines [1]; pan caspase inhibitor with IFN-gamma
  apoptosis in IFN-gamma treated cells: prevents apoptosis

B1: interferon-gamma (protein, UniProt P01579 24-161, looked up)
Interferon gamma: QDPYVKEAENLKKYFNAGHSDVADNGTLFLGILKNWKEESDRKIMQSQIVSFYFKLFKNFKDDQSIQKSVETIKEDMNVKFFNSNKKKRDDFEKLTNYSVTDLNVQRKAIHELIQVMAELSPAAKTGKRKRSQMLFRG
notes: type II interferon (InterMune, Brisbane, Calif.) used to treat tumor cells in vitro
[2]
  Induction of MHC class I: No
  Induction of MHC class II: Yes
  Induction of apoptosis: Yes
  Induction of autophagy: Yes
Melanoma cell lines [3]
  HMB-45 expression: Change after IFN-gamma treatment, Down: 45/5
  HMB-45 expression: Change after IFN-gamma treatment, None: 54.5%
  MAGE-1 expression: Change after IFN-gamma treatment, Down: 61.5%
  MAGE-1 expression: Change after IFN-gamma treatment, None: 38.5%
  MART-1 expression: Change after IFN-gamma treatment, Down: 85.2%
  MART-1 expression: Change after IFN-gamma treatment, None: 14.8%
  Mel-2 expression: Change after IFN-gamma treatment, Down: 53.8%
  Mel-2 expression: Change after IFN-gamma treatment, None: 46.2%
  Mel-5 expression: Change after IFN-gamma treatment, Down: 27.3%
  Mel-5 expression: Change after IFN-gamma treatment, None: 72.7%
  Melan-A expression: Change after IFN-gamma treatment, Down: 70.8%
  Melan-A expression: Change after IFN-gamma treatment, None: 29.2%
  S-100 expression: Change after IFN-gamma treatment, Down: 57.1%
  S-100 expression: Change after IFN-gamma treatment, None: 42.9%
  Tyrosinase expression: Change after IFN-gamma treatment, Down: 60.0%
  Tyrosinase expression: Change after IFN-gamma treatment, None: 40.0%
[4]
  Induction of MHC class I: No
  Induction of MHC class II: Yes
  Induction of apoptosis: Yes
  Induction of autophagy: Yes
[5]
  ICAM-1, immunoblot: significantly up-regulated
  calreticulin and high-mobility group box-1 protein (HMGB-1), immunoblot: up-regulated in some cases
  common melanoma antigens (mel-4, Mart-1 and tyrosinase), immunoblot: down regulated
[6]
  cases with MHC class II induction greater than two fold: 70%
Ovarian tumor cell line
  Induction of MHC class I: Yes
  Induction of MHC class II: Yes
  Induction of apoptosis: No
  Induction of autophagy: Yes
Colon tumor cell line
  Induction of MHC class I: Yes
  Induction of MHC class II: Yes
  Induction of apoptosis: No
  Induction of autophagy: Yes
Melanoma cell lines [1]; 1000 IU/mL IFN-gamma, 72 hours
  induction of autophagic and apoptotic cell populations: induces both autophagic and apoptotic cell populations
